{
  "source": "paper PMC3585964",
  "about": "“Tissue Inhibitor of Metalloproteinases-3 Peptides Inhibit Angiogenesis and Choroidal Neovascularization in Mice” (PLoS ONE, 2013)",
  "key": {"[1]": {"target": "VEGFR-2 (KDR/Fc chimera) binding to VEGF (Homo sapiens, UniProt P35968)", "sequence (P35968 with tags, fused parts or gaps limits assumed)": "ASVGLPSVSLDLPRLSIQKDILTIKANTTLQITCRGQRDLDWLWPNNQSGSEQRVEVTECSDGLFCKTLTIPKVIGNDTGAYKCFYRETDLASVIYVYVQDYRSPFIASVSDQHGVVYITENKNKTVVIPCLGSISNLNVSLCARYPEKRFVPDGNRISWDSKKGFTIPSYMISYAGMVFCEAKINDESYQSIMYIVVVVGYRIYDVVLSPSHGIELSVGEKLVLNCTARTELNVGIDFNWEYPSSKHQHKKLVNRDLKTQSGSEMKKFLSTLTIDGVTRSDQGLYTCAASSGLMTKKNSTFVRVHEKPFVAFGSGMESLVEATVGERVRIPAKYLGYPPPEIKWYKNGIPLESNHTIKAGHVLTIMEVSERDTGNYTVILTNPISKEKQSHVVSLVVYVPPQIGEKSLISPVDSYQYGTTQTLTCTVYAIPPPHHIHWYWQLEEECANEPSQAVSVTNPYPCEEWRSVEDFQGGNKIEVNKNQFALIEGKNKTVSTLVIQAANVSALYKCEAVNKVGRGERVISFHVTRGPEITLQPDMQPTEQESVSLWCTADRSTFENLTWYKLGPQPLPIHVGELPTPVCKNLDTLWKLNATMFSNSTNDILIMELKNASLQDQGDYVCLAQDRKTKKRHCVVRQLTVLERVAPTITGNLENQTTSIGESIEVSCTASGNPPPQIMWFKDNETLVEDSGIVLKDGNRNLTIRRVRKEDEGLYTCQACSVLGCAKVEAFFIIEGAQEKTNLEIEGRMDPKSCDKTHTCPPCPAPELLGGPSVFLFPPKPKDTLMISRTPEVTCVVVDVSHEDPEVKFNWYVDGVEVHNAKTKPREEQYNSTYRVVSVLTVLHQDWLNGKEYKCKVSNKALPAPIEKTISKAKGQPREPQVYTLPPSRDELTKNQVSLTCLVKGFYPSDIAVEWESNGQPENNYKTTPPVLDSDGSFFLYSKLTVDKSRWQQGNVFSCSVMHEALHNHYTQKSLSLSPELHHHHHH", "assay": "Competitive ELISA, binding of sVEGFR-2/Fc to immobilized VEGF", "method": "(§1) 96 well EIA/RIA strip plates (COSTAR) were coated with 80 ng/ml recombinant VEGF overnight at 4°C, washed and blocked with blocking buffer (1% BSA and 5% sucrose) overnight at 4°C. Series of dilutions were prepared for recombinant proteins representing WT-TIMP-3, NT2:CT3 and N-T3 in PBS or synthetic peptides corresponding to T3-loop 5, T3-loop 6, T3-N or T3-tail peptides in 0.5 M Tris-HCl (pH 7.5). The diluents were mixed with 50 ng/ml recombinant human VEGFR-2 (KDR/Fc chimera, recombinant human VEGFR-1 (Flt-1)/Fc chimera (R&D Systems, Minneapolis, MN) or control human lgG (Sigma Aldrich, St Louis, MO). The mixtures were then added to the VEGF-coated well in a final volume of 100 µL in PBS and incubated for 2 hours at room temperature. Bound VEGFR-2 was detected by HRP-conjugated anti-human lgG(Fc specific) (1∶1000)."}, "[2]": {"system": "VEGFR-1 (Flt-1)/Fc chimera binding to VEGF", "assay": "Competitive ELISA, binding of sVEGFR-1/Fc to immobilized VEGF", "set-up": "species or system human", "conditions": "50 ng/ml sVEGFR-1 (sFlt-1)", "method": "as §1"}, "[3]": {"system": "angiogenesis; VEGF binding to VEGFR-2", "conditions": "cited from earlier work", "from_the_text": "Tissue inhibitors of metalloproteinases (TIMPs) constitute a family of four proteins (TIMP-1, TIMP-2, TIMP-3 and TIMP-4) that are endogenous inhibitors of […] and play a critical role in the maintenance of extracellular matrix (ECM) homeostasis. In general, all four TIMPs are broad-spectrum inhibitors of the MMP family, with some differences in specificity. […] Based on these studies we designed experiments t ... || Sorsby fundus dystrophy (SFD), an autosomal dominant, fully penetrant, degenerative disease of the macula, [25] is manifested by symptoms of night blindness or sudden loss of acuity, usually in the third to fourth decades of life due to submacular neovascularization, [27], [28], [29]. SFD is caused by specific mutations in the tissue inhibitor of metalloproteinases-3 (TIMP-3) gene, [31], [32], [33], [34], [35], [36], [37], most of which introduce an unpaired cysteine at the C-terminus of the protein. We have recently reported that S156C mutation in TI ..."}, "[4]": {"conditions": "read-out: IC50, inhibition of VEGF binding to sVEGFR-2/Fc chimera (recombinant proteins), competitive ELISA, 50 ng/ml human VEGFR-2/Fc, plate coated with 80 ng/ml VEGF, 2 h room temperature, proteins in PBS"}},
  "note": "“Also recorded” adds a separate entry of the source. Where two headings read alike, the source gives them in different places. Ends that are not written are not given here. Peptide text beside a SMILES is read from it.",
  "data": [
    {"molecule": "CC[C@H](C)[C@H](NC(=O)[C@H](CS)NC(=O)[C@H](C)NC(=O)[C@H](Cc1ccc(O)cc1)NC(=O)[C@H](Cc1c[nH]cn1)NC(=O)[C@H](CCCCN)NC(=O)[C@H](CO)NC(=O)[C@H](CCC(N)=O)NC(=O)[C@H](Cc1ccc(O)cc1)NC(=O)CNC(=O)[C@@H]1CCCN1C(=O)[C@H](Cc1ccc(O)cc1)NC(=O)CNC(=O)[C@H](Cc1ccccc1)NC(=O)[C@H](CC(N)=O)NC(=O)[C@H](CO)NC(=O)[C@H](CC(C)C)NC(=O)[C@H](CCSC)NC(=O)[C@H](CC(=O)O)NC(=O)[C@@H](NC(=O)[C@H](Cc1c[nH]c2ccccc12)NC(=O)[C@H](CC(C)C)NC(=O)[C@H](CS)NC(=O)[C@H](CCC(=O)O)NC(=O)[C@H](CC(N)=O)NC(=O)[C@@H](N)CCCCN)[C@@H](C)O)C(=O)N[C@@H](CCCNC(=N)N)C(=O)N[C@@H](CCC(N)=O)C(=O)N[C@@H](CCCCN)C(=O)NCC(=O)O", "note": "[T3-loop 6] (H-KNECLWTDMLSNFGYPGYQSKHYACIRQKG-OH)", "values": [
      {"measurement": "IC50", "setting": "[1]", "result": 2000, "unit": "nM"}
    ]},
    {"molecule": "GYCSWYRGWAPPDKSIINATDP [T3-tail]", "values": [
      {"measurement": "IC50", "setting": "[1]", "result": 5000, "unit": "nM"}
    ]},
    {"molecule": "WT-TIMP-3: Full length, recombinant human TIMP-3 purified from stably transfected mouse myeloma cells (protein, UniProt P35625 1-211, looked up, full-length, Full length, recombinant human TIMP-3 purified from stably transfected mouse myeloma cells) MTPWLGLIVLLGSWSLGDWGAEACTCSPSHPQDAFCNSDIVIRAKVVGKKLVKEGPFGTLVYTIKQMKMYRGFTKMPHVQYIHTEASESLCGLKLEVNKYQYLLTGRVYDGKMYTGLCNFVERWDQLTLSQRKGLNYRYHLGCNCKIKSCYYLPCFVTSKNECLWTDMLSNFGYPGYQSKHYACIRQKGGYCSWYRGWAPPDKSIINATDP", "values": [
      {"measurement": "Effect of recombinant proteins on VEGF binding to VEGFR-1 (in words)", "setting": "[2]", "result": "unable to block sVEGFR-1-VEGF complexes; also recorded: neither full length WT-TIMP-3 nor COOH-terminal TIMP-3 blocked the binding of VEGF to VEGFR1"},
      {"measurement": "Blocking of VEGF binding to VEGFR-2 / angiogenesis inhibition (literature)", "setting": "[3]; independent of MMP inhibitory activity, ref [8]", "result": "potent angiogenesis inhibitor"},
      {"measurement": "Inhibition of angiogenesis independent of MMP inhibition (literature)", "setting": "[3]; ref [8], [21], [22]", "result": "Inhibition of angiogenesis"},
      {"measurement": "Effect of recombinant proteins on VEGF-VEGFR-2 complexes (in words)", "setting": "[1]; competitive ELISA, 50 ng/ml sVEGFR-2, proteins in PBS", "result": "inhibit sVEGFR-2-VEGF complexes in a concentration-dependent manner; also recorded: markedly decreased"},
      {"measurement": "IC50", "setting": "[1]; [4]", "result": 41, "unit": "nM"}
    ]},
    {"molecule": "NT2:CT3: NH2-terminal TIMP-2: COOH-terminal TIMP-3 chimera (residues 1–126 of TIMP-2 and residues 122–188 of TIMP-3) (protein, Limits are in mature numbering (TIMP-2 offset +26, TIMP-3 offset +23); Methods print TIMP-2 1-127 and Results print 1-126; the Methods limit i) CSCSPVHPQQAFCNADVVIRAKAVSEKEVDSGNDIYGNPIKRIQYEIKQIKMFKGPEKDIEFIYTAPSSAVCGVSLDVGGKKEYLIAGKAEGDGKMHITLCDFIVPWDTLSTTQKKSLNHRYQMGCCKIKSCYYLPCFVTSKNECLWTDMLSNFGYPGYQSKHYACIRQKGGYCSWYRGWAPPDKSIINATDP", "values": [
      {"measurement": "IC50", "setting": "[1]; [4]", "result": 28, "unit": "nM"}
    ]},
    {"molecule": "S156C mutation in TIMP-3: TIMP-3 with the S156C mutation (Sorsby fundus dystrophy) (protein, UniProt P35625 24-211, looked up, variant S156C) Metalloproteinase inhibitor 3: CTCSPSHPQDAFCNSDIVIRAKVVGKKLVKEGPFGTLVYTIKQMKMYRGFTKMPHVQYIHTEASESLCGLKLEVNKYQYLLTGRVYDGKMYTGLCNFVERWDQLTLSQRKGLNYRYHLGCNCKIKSCYYLPCFVTSKNECLWTDMLSNFGYPGYQCKHYACIRQKGGYCSWYRGWAPPDKSIINATDP", "values": [
      {"measurement": "Effect of TIMP-3 mutation on angiogenesis (literature)", "setting": "[3]; ref [18]", "result": "induces increased angiogenesis"}
    ]}
  ]
}
